Substrate in the data set: O=[N+]([O-])c1ccc(O[C@@H]2O[C@H](CO)[C@@H](O)[C@H](O)[C@H]2O)cc1
The data set is described as follows: purified protein. As to conditions: 25 mM sodium phosphate pH 6.0, 45 °C, 1 μg/mL enzyme, 0.1-5.0 mM substrate, no inhibitor.

B1: rBGLa (Limosilactobacillus antri DSM 16041) (protein)
chain: MVKIDLQFVQGLTLEERAALVSGKDFWFTAKVPGVDRMMMSDGPSGLRKQDIDVAPTDVNNSVDAVCFPSSALTASSFDDQLLFKLGHHLGVAASAEKLGVLLGPGVNIKRSPLAGRNFEYFSEDPLLAGRMGTAYVKGVQEEGVGVSVKHFAANNRENQRFTSSSNIDERALREIYLAQFERIVKEAQPATLMCSYNRLNGTLNSQNQRLLTEILRNEWGFQGLVMSDWGAVADHVAAIKAGLDLEMPGKDQASVDEIVQAVKEGRLQESTLNRSALRVLQMVEKWGKDVSRTESYDKEEQHEFARQVADDSIVLLKNDNQELPLHTGGSLAVIGELAAKPRFEGGGSSHVNAHHLVTPLAAAPTNAKYAVGYSLTETAPNEELTKEAVQLAKQSDQVVFFAGFPERMETEGFDKDSIALPANQNALLREVLKVNPHVTVVLQNGSVVEMPWADGVPAIVETYLAGEAVGEATWDILTGKVNPSGKLSESFPLRLQDNPTYGTFARDHDEEDYHEGIFVGYRYYDLHEMPVRFPFGHGLSYTDFTYSDLTVSEEDNDVKVRFTVTNSGQVAGKEVAQVYVANHVSRVEMPVKELRDFTKLALAPGESKTVTLTLPRRAFSYYNVAQEQWEADNGEYEIMVGSSSRDIRLRTTFTLTIGVNPVGEITGDTYIGDIWNDQDPKVQAALKSSGLYEVLQPMMADKDWVAISANMPLRSLAATGIQEEVRDAFLRALK
In the case of B1, the Michaelis-Menten constant (Km) (commonly the concentration of substrate that gives half-maximal velocity) is 1.84 ± 0.07 mM; the catalytic constant (kcat) (in general, the number of substrate molecules converted per active site and unit of time at saturation) was 407 s⁻¹; the kcat/Km – broadly, the second-order rate constant that governs catalysis at low substrate concentration – worked out at 221000 M⁻¹ s⁻¹.
